Test results as given in US20250320281A1.

What was measured:
Assay in all cases: cell-based or functional assay
[1] = molecular target: HIV-1 Env of isolate MGRM-A-008 (subtype A) (HIV-1)
[2] = molecular target: HIV-1 MGRM-C-027 Env (pseudovirus, clade C) (HIV-1)
[3] = molecular target: HIV-1 envelope glycoprotein (Env) of isolate MGRM-C-024 (HIV-1)
[4] = molecular target: HIV-1 Env of isolate MGRM-Chronic-B-017 (subtype B) (HIV-1)
[5] = molecular target: HIV-1 JRFL Env (pseudovirus, clade B) (HIV-1)
[6] = molecular target: HIV-1 Env of isolate 98CN009 (HIV-1)
[7] = molecular target: HIV-1 Env of isolate MGRM-A-004 (HIV-1)
[8] = molecular target: HIV-1 Env of isolate MGRM-A-001 (HIV-1)
[9] = molecular target: HIV-1 Env of isolate 92UG024 (clade D), on pseudovirus (HIV-1)
[10] = molecular target: HIV-1 APV6 Env (pseudovirus, clade B) (HIV-1)
[11] = molecular target: HIV-1 Env of isolate 93UG077 (HIV-1)
[12] = molecular target: HIV-1 Env of isolate 92WR026 (HIV-1)
[13] = molecular target: HIV-1 Env of isolate MGRM-A-009 (subtype A) (HIV-1)
[14] = molecular target: HIV-1 envelope glycoprotein (Env) of isolate MGRM-C-025 (HIV-1)
[15] = molecular target: HIV-1 APV17 Env (pseudovirus) (HIV-1)
[16] = molecular target: HIV-1 Env of isolate MGRM-AG-012 (subtype AG) (HIV-1)
[17] = molecular target: HIV-1 APV13 Env (pseudovirus, clade B) (HIV-1)
[18] = molecular target: HIV-1 MGRM-C-026 Env (pseudovirus, clade C) (HIV-1)
[19] = molecular target: HIV-1 92RW020 Env (pseudovirus, clade A) (HIV-1)
[20] = molecular target: HIV-1 Env of isolate MGRM-F1-014 (HIV-1)
[21] = molecular target: HIV-1 Env of isolate THR0.18 (subtype B pseudovirus) (HIV-1)
[22] = molecular target: HIV-1 Env of isolate MGRM-D-028 (pseudovirus) (HIV-1)
[23] = molecular target: HIV-1 Env of isolate 92TH021 (pseudovirus) (HIV-1)
[24] = molecular target: HIV-1 Env of isolate MGRM-AE-006 (HIV-1)
[25] = molecular target: HIV-1 Env of isolate MGRM-D-013 (pseudovirus) (HIV-1)
[26] = molecular target: HIV-1 Env of isolate MGRM-G-011 (HIV-1)
[27] = molecular target: HIV-1 Env of isolate MGRM-G-016 (HIV-1)
[28] = molecular target: HIV-1 IAVI-C3 envelope glycoprotein (Env) on pseudovirus (HIV-1)
[29] = molecular target: HIV-1 Env of pseudovirus MGRM-F1-010 (HIV-1)
[30] = molecular target: HIV-1 envelope glycoprotein (Env) of isolate MGRM-A-013, clade A (HIV-1)
[31] = molecular target: HIV-1 Env of pseudovirus MGRM-AE-005 (clade CRF01_AE) (HIV-1)
[32] = molecular target: HIV-1 Env of pseudovirus MGRM-F1-016 (HIV-1)
[33] = molecular target: HIV-1 Env of isolate NL43, clade B, on pseudovirus (HIV-1)
[34] = molecular target: HIV-1 Env of pseudovirus MGRM-G-001 (clade G) (HIV-1)
[35] = molecular target: HIV-1 94UG103 envelope glycoprotein (Env) on pseudovirus (HIV-1)
[36] = molecular target: HIV-1 Env of isolate 98IN022 (clade C) (HIV-1 isolate 98IN022)
[37] = molecular target: HIV-1 Env of isolate 93MW959 (clade C) (HIV-1 isolate 93MW959)

4980_N08 (PGT-143) (antibody), sequence (VH): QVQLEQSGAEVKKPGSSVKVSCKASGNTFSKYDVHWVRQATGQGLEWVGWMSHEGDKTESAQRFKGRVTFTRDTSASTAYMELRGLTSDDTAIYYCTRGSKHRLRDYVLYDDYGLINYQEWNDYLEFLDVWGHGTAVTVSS
4980_N08 (PGT-143) (antibody), sequence (VL): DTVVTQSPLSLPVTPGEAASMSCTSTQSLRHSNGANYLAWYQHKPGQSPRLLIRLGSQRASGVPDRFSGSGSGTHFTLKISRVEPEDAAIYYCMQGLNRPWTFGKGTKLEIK
5345_I01 (PGT-137) (antibody), sequence (VH): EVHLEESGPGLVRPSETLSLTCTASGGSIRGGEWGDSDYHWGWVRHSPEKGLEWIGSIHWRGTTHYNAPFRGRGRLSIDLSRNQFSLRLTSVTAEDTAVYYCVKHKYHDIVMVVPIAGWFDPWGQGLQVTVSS
5345_I01 (PGT-137) (antibody), sequence (VL): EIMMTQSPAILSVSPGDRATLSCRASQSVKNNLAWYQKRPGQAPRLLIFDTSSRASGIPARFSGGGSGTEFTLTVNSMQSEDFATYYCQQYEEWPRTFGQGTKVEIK
5329_C19 (PGT-136) (antibody), sequence (VH): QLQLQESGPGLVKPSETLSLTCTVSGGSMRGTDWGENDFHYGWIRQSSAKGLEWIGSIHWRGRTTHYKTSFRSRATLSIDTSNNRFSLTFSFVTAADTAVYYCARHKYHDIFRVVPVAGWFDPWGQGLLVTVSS
5329_C19 (PGT-136) (antibody), sequence (VL): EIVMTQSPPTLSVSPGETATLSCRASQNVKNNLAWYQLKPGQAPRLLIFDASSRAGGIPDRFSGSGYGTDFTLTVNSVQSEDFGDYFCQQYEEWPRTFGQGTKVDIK
4993_K13 (PGT-141) (antibody), sequence (VH): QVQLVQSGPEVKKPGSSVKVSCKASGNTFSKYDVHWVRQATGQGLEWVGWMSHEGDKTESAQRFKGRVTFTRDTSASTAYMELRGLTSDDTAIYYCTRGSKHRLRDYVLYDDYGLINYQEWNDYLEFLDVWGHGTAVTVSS
4993_K13 (PGT-141) (antibody), sequence (VL): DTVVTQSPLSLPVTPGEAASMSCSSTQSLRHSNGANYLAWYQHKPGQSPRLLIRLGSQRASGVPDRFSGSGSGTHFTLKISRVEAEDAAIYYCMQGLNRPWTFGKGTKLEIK
4995_E20 (PGT-142) (antibody), sequence (VH): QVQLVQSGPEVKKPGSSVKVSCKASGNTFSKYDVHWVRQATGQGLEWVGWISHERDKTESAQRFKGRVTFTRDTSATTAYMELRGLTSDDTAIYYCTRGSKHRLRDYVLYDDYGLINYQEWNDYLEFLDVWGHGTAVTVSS
4970_K22 (PGT-144) (antibody), sequence (VH): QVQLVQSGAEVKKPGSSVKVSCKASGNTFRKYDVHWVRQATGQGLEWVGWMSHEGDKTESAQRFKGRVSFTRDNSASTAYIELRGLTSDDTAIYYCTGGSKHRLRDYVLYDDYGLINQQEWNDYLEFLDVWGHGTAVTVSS
4970_K22 (PGT-144) (antibody), sequence (VL): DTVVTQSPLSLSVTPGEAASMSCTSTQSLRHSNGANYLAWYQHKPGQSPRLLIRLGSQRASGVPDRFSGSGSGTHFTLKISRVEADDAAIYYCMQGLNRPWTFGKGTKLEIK

| Substance | IC50 (µg/mL), pseudovirus neutralization [1] | IC50 neutralization [2] | IC50 (µg/mL), pseudovirus neutralization [3] | IC50 neutralization [4] | IC50 (µg/mL), pseudovirus neutralization [6] | IC50 [7] | IC50 [8] | IC50, pseudovirus neutralization [9] | IC50 neutralization [10] | IC50 [11] | IC50 [12] | IC50 (µg/mL), pseudovirus neutralization [13] | IC50 (µg/mL), pseudovirus neutralization [14] | IC50 (neutralizing activity, pseudovirus) [15] | IC50 (µg/mL), pseudovirus neutralization [16] | IC50 neutralization [18] | IC50 neutralization [19] | IC50 (µg/mL), pseudovirus neutralization [26] | IC50 (µg/mL), pseudovirus neutralization [27] | other results |
| --- | --- | --- | --- | --- | --- | --- | --- | --- | --- | --- | --- | --- | --- | --- | --- | --- | --- | --- | --- | --- |
| 5329_C19 (PGT-136) (antibody) | > 50 µg/mL | > 10 µg/mL | > 50 µg/mL | > 50 µg/mL | 0.428 µg/mL | > 50 µg/mL | > 50 µg/mL | 0.0915 µg/mL | > 10 µg/mL | > 50 µg/mL | > 50 µg/mL | > 50 µg/mL | > 50 µg/mL | > 10 µg/mL | > 50 µg/mL | 0.0065 µg/mL | 0.738 µg/mL | – | – | IC50 neutralization [5]: > 10 µg/mL; IC50 neutralization [17]: > 10 µg/mL |
| 5145_B14 (PGT-127) (antibody) | – | – | – | – | – | – | – | – | – | – | – | – | – | – | – | – | – | – | – | IC50 (µg/mL), pseudovirus neutralization [20]: > 50 µg/mL; IC50 (µg/mL), pseudovirus neutralization [21]: > 50 µg/mL; IC50, pseudovirus neutralization [22]: > 50 µg/mL; Polyclonal Transfectant Neutralization Index [23]: 0.94; Primary Neutralization Index (B cell culture supernatant) [23]: 1; IC50 [24]: > 50 µg/mL; IC50, pseudovirus neutralization [25]: > 50 µg/mL |
| 5345_I01 (PGT-137) (antibody) | > 50 µg/mL | – | > 50 µg/mL | > 50 µg/mL | 5.06 µg/mL | > 50 µg/mL | > 50 µg/mL | – | – | > 50 µg/mL | 0.092 µg/mL | > 50 µg/mL | > 50 µg/mL | – | > 50 µg/mL | – | – | – | – | – |
| 5343_B08 (PGT-135) (antibody) | > 50 µg/mL | > 10 µg/mL | > 50 µg/mL | > 50 µg/mL | 0.071 µg/mL | > 50 µg/mL | > 50 µg/mL | 0.0139 µg/mL | > 10 µg/mL | > 50 µg/mL | 0.068 µg/mL | > 50 µg/mL | > 50 µg/mL | > 10 µg/mL | 41.9 µg/mL | 0.0123 µg/mL | 0.157 µg/mL | – | – | IC50 neutralization [5]: > 10 µg/mL; IC50 neutralization [17]: 0.545 µg/mL |
| 4877_D15 (PGT-122) (antibody) | – | 0.0388 µg/mL | – | – | – | – | – | > 10 µg/mL | 0.0851 µg/mL | – | – | – | – | – | – | 0.0089 µg/mL | 0.0072 µg/mL | – | – | IC50 (µg/mL), pseudovirus neutralization [20]: 0.195 µg/mL; IC50 neutralization [5]: 0.0471 µg/mL; IC50 (µg/mL), pseudovirus neutralization [21]: > 50 µg/mL; IC50, pseudovirus neutralization [22]: 3.34 µg/mL; neutralization IC50 (pseudovirus) [15]: 0.522 µg/mL; IC50 [24]: > 50 µg/mL; IC50, pseudovirus neutralization [25]: > 50 µg/mL; IC50 neutralization [17]: 0.992 µg/mL |
| 4838_L06 (PGT-121) (antibody) | – | – | – | – | – | – | – | > 10 µg/mL | – | – | – | – | – | – | – | – | – | – | – | IC50 (µg/mL), pseudovirus neutralization [21]: > 50 µg/mL; IC50, pseudovirus neutralization [22]: 0.009 µg/mL; IC50 [24]: > 50 µg/mL; IC50, pseudovirus neutralization [25]: > 50 µg/mL |
| 4980_N08 (PGT-143) (antibody) | – | – | – | – | – | – | – | – | – | – | – | – | – | 0.618 µg/mL | – | – | – | 0.074 µg/mL | 7.6 µg/mL | – |
| 4970_K22 (PGT-144) (antibody) | – | – | – | – | – | – | – | – | – | – | – | – | – | 5.12 µg/mL | – | – | – | 1.58 µg/mL | > 50 µg/mL | – |
| 5136_H01 (PGT-131) (antibody) | > 50 µg/mL | – | > 50 µg/mL | > 50 µg/mL | 4.05 µg/mL | > 50 µg/mL | > 50 µg/mL | – | – | > 50 µg/mL | 0.041 µg/mL | 0.035 µg/mL | > 50 µg/mL | – | > 50 µg/mL | – | – | – | – | Primary Neutralization Index (B cell culture supernatant) [23]: 354 |
| 4995_E20 (PGT-142) (antibody) | – | – | – | – | – | – | – | – | – | – | – | – | – | 0.393 µg/mL | – | – | – | 0.046 µg/mL | 8.17 µg/mL | – |
| 1496_C09 (PG9) (TCN-109) (antibody) | – | 2.45 µg/mL | – | – | – | – | – | 1.91 µg/mL | 0.214 µg/mL | – | – | – | – | – | – | 0.113 µg/mL | 0.161 µg/mL | 0.335 µg/mL | 1.36 µg/mL | IC50, pseudovirus neutralization [28]: 12.9 µg/mL; IC50 (µg/ml), pseudovirus neutralization [29]: 0.03 µg/mL; IC50 (µg/ml), pseudovirus neutralization [30]: 0.16 µg/mL; IC50 [31]: 0.16 µg/mL; IC50 (µg/ml), pseudovirus neutralization [32]: 0.58 µg/mL; IC50 [6]: 0.371 µg/mL; IC50 (µg/mL), pseudovirus neutralization [9]: 1.86 µg/mL; IC50 (µg/ml), pseudovirus neutralization [33]: 0.32 µg/mL; IC50 [34]: 0.16 µg/mL; IC50, pseudovirus neutralization [35]: 0.173 µg/mL; IC50 (µg/ml), pseudovirus neutralization [36]: 0.006 µg/mL; IC50 (µg/ml), pseudovirus neutralization [37]: 0.04 µg/mL |
| 5147_N06 (PGT-130) (antibody) | > 50 µg/mL | 0.0052 µg/mL | > 50 µg/mL | > 50 µg/mL | 0.136 µg/mL | > 50 µg/mL | > 50 µg/mL | > 10 µg/mL | > 10 µg/mL | 21.4 µg/mL | 0.037 µg/mL | 0.308 µg/mL | > 50 µg/mL | – | > 50 µg/mL | 0.0173 µg/mL | 0.014 µg/mL | – | – | IC50 neutralization [5]: 0.0346 µg/mL; Polyclonal Transfectant Neutralization Index [23]: 4.2; Primary Neutralization Index (B cell culture supernatant) [23]: 538; Neutralization by PGT-130, IC50 [15]: > 10 µg/mL; Neutralization by PGT-130, IC80 [15]: > 10 µg/mL; Neutralization by PGT-130, IC90 [15]: > 10 µg/mL; Neutralization by PGT-130, IC95 [15]: > 10 µg/mL; neutralization IC50 (pseudovirus) [15]: > 10 µg/mL; IC50 neutralization [17]: 0.0345 µg/mL |
| VRC01 (antibody) | – | – | – | – | – | – | – | – | – | – | – | – | – | – | – | – | – | 0.065 µg/mL | 0.063 µg/mL | IC50 [20]: 0.056 µg/mL |
| PGV04 (antibody) | – | – | – | – | – | – | – | – | – | – | – | – | – | – | – | – | – | 0.78 µg/mL | 0.019 µg/mL | IC50 [6]: 0.0125 µg/mL; IC50 (µg/mL), pseudovirus neutralization [9]: 0.201 µg/mL |
| 5123_A06 (PGT-125) (antibody) | – | > 10 µg/mL | – | – | – | – | – | > 10 µg/mL | 0.0359 µg/mL | – | – | – | – | – | – | 0.0106 µg/mL | 0.0028 µg/mL | – | – | IC50 (µg/mL), pseudovirus neutralization [20]: > 50 µg/mL; IC50 neutralization [5]: 0.0156 µg/mL; IC50 (µg/mL), pseudovirus neutralization [21]: > 50 µg/mL; IC50, pseudovirus neutralization [22]: > 50 µg/mL; Polyclonal Transfectant Neutralization Index [23]: 50.6; Primary Neutralization Index (B cell culture supernatant) [23]: 133; neutralization IC50 (pseudovirus) [15]: 7.31 µg/mL; IC50 [24]: 0.009 µg/mL; IC50, pseudovirus neutralization [25]: > 50 µg/mL; IC50 neutralization [17]: 0.0128 µg/mL |
| 5114_A19 (PGT-128) (antibody) | > 50 µg/mL | – | > 50 µg/mL | > 50 µg/mL | 0.025 µg/mL | > 50 µg/mL | > 50 µg/mL | – | – | 0.014 µg/mL | 0.01 µg/mL | 0.005 µg/mL | 10.5 µg/mL | – | > 50 µg/mL | – | – | – | – | Polyclonal Transfectant Neutralization Index [23]: 10; Primary Neutralization Index (B cell culture supernatant) [23]: 6.6 |
| 4993_K13 (PGT-141) (antibody) | – | – | – | – | – | – | – | – | – | – | – | – | – | 0.616 µg/mL | – | – | – | 0.086 µg/mL | 4.69 µg/mL | – |
